Test results taken from patent US20240287172A1 (SCIRHOM, published 2024).

T1: hiR2-FL-M534-T7 (deletion of M534) (human, UniProt Q6PJF5 1-856)
T1 construct: single amino acid deletion
T1 sequence: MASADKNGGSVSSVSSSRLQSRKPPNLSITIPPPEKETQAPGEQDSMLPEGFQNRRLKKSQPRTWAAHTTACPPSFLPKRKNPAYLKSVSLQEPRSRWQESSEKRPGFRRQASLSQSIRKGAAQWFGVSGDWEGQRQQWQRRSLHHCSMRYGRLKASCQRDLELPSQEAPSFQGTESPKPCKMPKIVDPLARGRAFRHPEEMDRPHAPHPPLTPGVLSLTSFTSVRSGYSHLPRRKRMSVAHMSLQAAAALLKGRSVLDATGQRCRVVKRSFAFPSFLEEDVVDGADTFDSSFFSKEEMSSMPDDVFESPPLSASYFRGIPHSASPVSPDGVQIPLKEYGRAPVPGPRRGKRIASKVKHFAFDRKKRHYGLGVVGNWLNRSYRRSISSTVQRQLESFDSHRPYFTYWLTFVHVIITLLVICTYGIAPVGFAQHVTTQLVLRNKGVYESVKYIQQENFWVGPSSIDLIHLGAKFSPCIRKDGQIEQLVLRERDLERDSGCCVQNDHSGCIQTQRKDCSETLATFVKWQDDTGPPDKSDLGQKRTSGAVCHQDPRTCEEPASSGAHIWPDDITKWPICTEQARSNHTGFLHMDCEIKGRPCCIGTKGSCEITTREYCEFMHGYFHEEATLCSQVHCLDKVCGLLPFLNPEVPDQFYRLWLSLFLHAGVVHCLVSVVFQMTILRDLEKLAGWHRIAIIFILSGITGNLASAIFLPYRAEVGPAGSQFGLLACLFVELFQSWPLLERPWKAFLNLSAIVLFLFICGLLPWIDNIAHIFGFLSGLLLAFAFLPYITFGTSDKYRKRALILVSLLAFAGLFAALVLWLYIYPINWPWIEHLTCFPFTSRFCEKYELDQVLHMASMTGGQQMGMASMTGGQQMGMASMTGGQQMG

B1: antibody 34 (antibody, V domains shown)
VH: QVTLKESGPGILQPSQTLSLTCSFSGFSLSTFSLGVGWIRQSSGKGLEWLAHIWWDDEKYYNPALKSRLTISKDTSKNQVFLKIANVDAADTATYYCARAYYSKSYYALDYWGQGTSVTVSS
VL: DIQMTQSPSSLSASLGERVSLTCRASQEISGYLSWLQQKPDGTIKRLIYAASTLDSGVPKRFSGSRSGSDYSLAISSLESEDFADYYCLQYANFPFTFGSGTKLEIK
notes: mouse IgG, kappa light chain; also called clone #34; purified antibody 34
B2: antibody 16 (antibody, V domains shown)
VH: QVTLKESGPGILQPSQTLSLTCSFSGFSLSTFALGVGWIRQPSGRGLEWLAHIWWDDDKYYNPALKSRLTISKDTSKNHVFLKIANVDTADTATYYCARITTYYYGMDYWGQGTSVTVSS
VL: DIVLSQSPATLSVTPGDSVSLFCRASQSIGNHLHWYQQESHASPRLLIKYASQSISGIPSRFSGSGSGTDFTLSINSVETEDFGMYFCQQSYNWPLTFGAGTKLELK
notes: mouse IgG, kappa light chain; also called clone #16; purified antibody 16
B3: antibody 3 (antibody, V domains shown)
VH: QVTLKESGPGILQPSQTLSLTCSFSGFSLTTFAMGIGWVRQPSGKGLEWLAHIWWDGEKYNNPVLKSRLTISKDTSKNQVFLRIANVDTPDTATYYCARISSIYYIIDNWGQGTSVTVSS
VL: DIVLTQSPATLSVTPGHSVSLSCRASQSISNNLHWYQKKSHESPRLLIKYVSQSISGIPSRFSGSGSGTDFTLSINSVETEDFGMYFCQQSYNWPLTFGAGTKLELK
notes: mouse IgG, kappa light chain; also called clone #3; purified antibody 3
B4: antibody 5 (antibody, V domains shown)
VH: QVTLKESGPGILQPSQTLSLTCSFSGFSLSTFGMGVGWIRQPSGKGLEWLAHIWWDDEKYYNSALKSRLTISKATSKNQAFLKIANVDTADTATYYCARISNYGSNYWYFNVWGTGTTVTVSS
VL: QVVLTQSPALMSASPGEKVTMTCSAGSSVSCMYWYQQKPGSSPRVLIYDTSNLASGVPARFTGSGSGTSYSLTISRMEAEDAASYYCQQWNSYPLTFGAGTKLELK
notes: mouse IgG, kappa light chain; also called clone #5; purified antibody 5
B5: antibody 42 (antibody, V domains shown)
VH: QVTLKESGPGILQPSQTLSLTCSLSGFSLSTFGRGVGWIRQPSGKGLEWLAHIWWDDEKYYNPALKSRLTISKDTSKNQVFLRIANVDTADTATYYCARIQNYGSNYWYFDVWGTGTTVTVSS
VL: LIVLTQSPAIMSASPGEKVTMTCGATSRISYMFWYQQKPGSSPRVLIYDTSNLASGVPVRFSGSGSGTSYSLTISRVEAEDVATYYCQQWNSYPLTFGAGTKLELK
notes: mouse IgG, kappa light chain; also called clone #42; purified antibody 42
B6: antibody 44 (antibody, V domains shown)
VH: QVTLKESGPGILQPSQTLSLTCSFSGFSLSTFGMGVGWIRQPSEKGLEWLAHIWWDDDKYYNPALKSRLTISKDTSKNQIFLKITNVDTAETATYYCSRIGNYGSNYWYFDVWGTGTTVTVSS
VL: QIVLTQSPAVMSASPGEKVTMTCTASSSVYYMYWYQQTPGSSPRLLIYDTSNLASGVPVRFSGSGSGTSYSLTISRMEAEDAATYYCQQWNTYPLTFGAGTKLELK
notes: mouse IgG, kappa light chain; also called clone #44; purified antibody 44
B7: antibody 43 (antibody, V domains shown)
VH: QVALKESGPGILQPSQTLSLTCSFSGFSLSTFGMGVGWIRQSSGKGLEWLANIWWDDDKYYNPALKSRLTISKDASKNQAFLKIANVDTADTATYYCARIGNYGSNYWYFDVWGTGTTVTVSS
VL: QIVLTQSPAIMSASPGERVTMTCSANSRISYMYWYQQKPGSSPRLLIYDTSNLASGVPVRFSGSGSGTSYSLTISRMEAEDAATYNCQQWSSYPLTFGAGTKLELK
notes: mouse IgG, kappa light chain; also called clone #43; purified antibody 43
B8: antibody 22 (antibody, V domains shown)
VH: QVTLKESGPGILQPSQTLSLTCSFSGFSLSTFGMGVGWIRQPSGKGLEWLAHIWWDDEKYYNSALKSRLTISKATSKNQVFLKIANVDTADTATYYCARISNYGSNYWYFNVWGTGTTVTVSS
VL: QVVLTQSPALMSASPGEKVTMTCSAGSSVSYMYWYQQKPGSSPRVLIYDTSNLASGVPARFTGSGSGTSYSLTISRMEAEDAATYYCQQWNSYPLTFGAGTKLELK
notes: mouse IgG, kappa light chain; also called clone #22; purified antibody 22

Each binder was assayed against T1, hiR2-FL-M534-T7 (deletion of M534) (assay: FACS, MEF-DKO cells, 3 µg/ml).
From the text: In brief, immortalized MEF-DKO-hiR2-FL-G498A-T7, MEF-DKO-hiR2-FL-Q502R-T7, MEF-DKO-hiR2-FL-I509V-T7, MEF-DKO-hiR2-FL-Q512S-T7, MEF-DKO-hiR2-FL-R513E-T7, MEF-DKO-hiR2-FL-K514E-T7, MEF-DKO-hiR2-FL-D515E-T7, MEF-DKO-hiR2-FL-E518S-T7, MEF-DKO-hiR2-FL-T522V-T7, MEF-DKO-hiR2-FL-F523W-T7, MEF-DKO-hiR2-FL-Q527P-T7, MEF-DKO-hiR2-FL-D528I-T7, MEF-DKO-hiR2-FL-D529H-T7, MEF-DKO-hiR2-FL-T530P-T7, MEF-DKO-hiR2-FL-G531S-T7, MEF-DKO-hiR2-FL-P532A-T7, MEF-DKO-hiR2-FL-M534-T7, MEF-DKO-hiR2-FL-D535-T7, MEF-DKO-hiR2-FL-K536-T7, MEF-DKO-hiR2-FL-S537E-T7, MEF-DKO-hiR2-FL-D538L-T7, MEF-DKO-hiR2-FL-L539A-T7, MEF-DKO-hiR2-FL-Q541H-T7, MEF-DKO-hiR2-FL-T544Q-T7, MEF-DKO-hiR2-FL-S545F-T7, MEF-DKO-hiR2-FL-A547S-T7, MEF-DKO-hiR2-FL-T555V-T7, MEF-DKO-hiR2-FL-E557D-T7, MEF-DKO-hiR2-FL-A560S-T7 and MEF-DKO-hiR2-FL-S562E-T7 cells were harvested with 10 mM EDTA in PBS, washed and resuspended in FACS buffer (PBS, 3% FBS, 0.05% sodium azide), and seeded in Nunc U-bottom 96-well plates (Thermo Fisher Scientific, USA) at approximately 3×10⁵ cells per well. To pellet cells and remove supernatants, the plates were centrifuged at 1,500 rpm and 4° C. for 3 minutes. For primary staining, cells were resuspended in 100 μl per well of either FACS buffer alone (controls) or the purified antibodies 3, 5, 16, 22, 34, 42, 43, 44, 48, and 50 of the invention at 3 μg/ml in FACS buffer and incubated on ice for 1 hour. Afterwards, plates were centrifuged at 1,500 rpm and 4° C. for 3 minutes and washed twice with 200 μl per well of FACS buffer. For secondary staining, cells were spun down and resuspended in 100 μl per well of PE-conjugated goat anti-mouse IgG F(ab′)2 detection fragment (Dianova, Germany) diluted 1:100 in FACS buffer. Protected from light, the cell suspensions were incubated on ice for 1 hour. Plates were then centrifuged at 1,500 rpm and 4° C. for 3 minutes and washed three times with 200 μl per well of FACS buffer. Finally, cells were resuspended in 150 μl per well of FACS buffer and analyzed using a BD Accuri™ C6 Plus flow cytometer (Becton Dickinson, Germany).

Binder | loss of binding vs wild type
B1 | ≥ 95%
B2 | ≥ 95%
B3 | ≥ 95%
B4 | ≥ 95%
B5 | ≥ 95%
B6 | ≥ 95%
B7 | ≥ 95%
B8 | ≥ 95%
